Residue numbers refer to the chain shown, from its start. Names may count otherwise. Each block holds one molecule with its values, some of them ahead of it.
How the values were obtained:
[1] = target: T1, FcγRIIB (CD32B) on Daudi cells (human, UniProt P31994 43-310); assay: FACS on Daudi cells, primary antibody 0.5 ug/ml, PE anti-human IgG Fc secondary
T1 construct: whole, on cells; also called human B cell tumor line
T1 sequence (looked up): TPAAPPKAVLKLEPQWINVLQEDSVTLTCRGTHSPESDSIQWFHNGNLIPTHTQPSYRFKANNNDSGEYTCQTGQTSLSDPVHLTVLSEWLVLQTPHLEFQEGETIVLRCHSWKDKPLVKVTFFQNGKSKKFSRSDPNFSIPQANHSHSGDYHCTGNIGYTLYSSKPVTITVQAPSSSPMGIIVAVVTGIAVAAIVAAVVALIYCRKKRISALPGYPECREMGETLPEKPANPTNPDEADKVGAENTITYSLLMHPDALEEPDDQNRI

[2] = target: T1, FcγRIIB (CD32B) on Daudi cells; assay: FACS on Daudi cells, primary antibody 0.1 ug/ml, PE anti-human IgG Fc secondary
[3] = target: T1, FcγRIIB (CD32B) on Daudi cells; assay: FACS on Daudi cells, primary antibody 0.02 µg/ml, PE anti-human IgG Fc secondary
Experimental: (§1) Protocol for FACS analysis. Approximately 10⁶ Daudi cells were used for each antibody staining. Cells were washed once with PBS. Primary antibodies (Ch2B6, Hu2B6Hc/ch2B6Lc, human IgG1) were diluted into 0.5, 0.1, 0.02 μg/mL in PBS/1% BSA and 100 μL of diluted antibodies was transferred to the cells. After 30 mins incubation at 4° C., cells were washed once with 1 mL PBS/1% BSA. PE conjugated F(ab′)₂ fragment of goat anti human IgG Fc specific (Jackson ImmunoReseach, Inc.) was used as secondary antibody at 1:1000 dilution. After 30 mins incubation at 4° C., cells were washed once with 1 mL PBS/1% BSA. The cells were then resuspended in 500 μL of PBS/1% BSA and subjected to be FACS analysis.
(§2) Transfections of HEK-293 cells were performed using the following combinations: hu2B6HC/hu2B6LC; hu2B6HC/hu2B6LC(N50Y); hu2B6HC/hu2B6LC(N50Y,V51A); ch2B6HC/ch2B6LC. After three days in culture the amount of human IgG expressed was quantitated by an ELISA assay, using the method described above. Binding to dimeric soluble FcγRIIb-Fc was determined by ELISA assay. […] FACS analysis was then performed to measure the binding of the mAbs to Daudi cells (Table 8).

[4] = target: T1, FcγRIIB (CD32B) on Daudi cells; assay: FACS on Daudi cells, primary antibody 0.5 µg/ml, PE anti-human IgG Fc secondary
Experimental: as §1, §2

[5] = target: T1, FcγRIIB (CD32B) on Daudi cells; assay: FACS on Daudi cells, primary antibody 0.02 ug/ml, PE anti-human IgG Fc secondary
[6] = target: T1, FcγRIIB (CD32B) on Daudi cells; assay: FACS on Daudi cells, primary antibody 0.1 µg/ml, PE anti-human IgG Fc secondary
Experimental: as §1, §2

soluble FcγIIA = target: T2, soluble FcγIIA (UniProt P12318 34-217); assay: ELISA, 100 ng/well soluble FcγIIA coated
T2 construct: also called dimeric soluble FcγRIIa-Fc; FcγRIIA; not shown: the p
T2 sequence (looked up): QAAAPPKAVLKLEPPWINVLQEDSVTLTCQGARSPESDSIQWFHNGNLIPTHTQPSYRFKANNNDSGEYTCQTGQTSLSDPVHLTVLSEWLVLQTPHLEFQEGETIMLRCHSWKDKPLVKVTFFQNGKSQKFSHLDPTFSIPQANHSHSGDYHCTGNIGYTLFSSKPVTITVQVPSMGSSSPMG
Experimental: Protocol for ELISA assay: 100 ng/well of soluble FcγIIA in carbonate buffer was coated on 96-well Maxisorp plates at 4° C. overnight. A serial of two-fold dilution of conditioned medium of Ch2B6; hu2B6HC/hu2B6LC; hu2B6HC/hu2B6LC(N50Y); hu2B6HC/hu2B6LC(N50Y,V51A); and purified IV.3 starting from 25 ng/well was added to the each well. The plate was incubated at room temperature for 1 hour. The binding was detected by HRP conjugated F(ab′)2 goat anti human IgG F(ab′)2 specific secondary antibody for Ch2B6 and all hu2B6 samples and HRP conjugated F(ab′)2 goat anti mouse IgG (H+L) secondary antibody for IV.3. After incubation with the secondary antibody for approximately 45 minutes, the plate was developed using a TMB substrate. After 5 mins incubation, the reaction was stopped by 1% H₂SO₄. The OD₄₅₀ nm was ready by SOFTmax program. Between each step, the plates were washed 3 times with PBS/0.1% Tween 20. The plates were blocked by 0.5% BSA in PBS/0.1% Tween 20 for 30 mins at room temperature before adding the serial diluted antibodies.

- Mean Fluorescence [1]: 552
- Mean Fluorescence [2]: 515
- Mean Fluorescence [3]: 45.6
- Mean Fluorescence ([3]; record 2): 173
- Mean Fluorescence [4]: 193
- Mean Fluorescence ([4]; record 2): 647
- Mean Fluorescence [5]: 168
- Mean Fluorescence [6]: 141
- Mean Fluorescence ([6]; record 2): 512
Molecule: ch2B6 monoclonal antibody (ch2B6HC/ch2B6LC)

- Mean Fluorescence [1]: 6.07
- Mean Fluorescence [4]: 9.49
- Mean Fluorescence ([4]; record 2): 1.23
Molecule: Human IgG1 (antibody)

- binding result (soluble FcγIIA): no binding
- Mean Fluorescence [3]: 40.1
- Mean Fluorescence [4]: 191
- Mean Fluorescence [6]: 135
B1: hu2B6HC/hu2B6LC(N50Y) (antibody, V domains shown)
VH: QVQLVQSGAEVKKPGASVKVSCKASGYTFTNYWIHWVRQAPGQGLEWMGVIDPSDTYPNYNKKFKGRVTMTTDTSTSTAYMELRSLRSDDTAVYYCARNGDSDYYSGMDYWGQGTTVTVSS
VL: EIVLTQSPDFQSVTPKEKVTITCRTSQSIGTNIHWYQQKPDQSPKLLIKYVSESISGVPSRFSGSGSGTDFTLTINSLEAEDAATYYCQQSNTWPFTFGGGTKVEIK
notes: Human IgG; HEK-293 conditioned medium; also called Hu2B6 N50Y; Hu2B6N50Y

- binding result (soluble FcγIIA): no binding
- Mean Fluorescence [3]: 58.6
- Mean Fluorescence [4]: 202
- Mean Fluorescence [6]: 174
B2: hu2B6HC/hu2B6LC monoclonal antibody (antibody, V domains shown)
VH: B1 VH
VL: B1 VL with Y50N
notes: Human IgG (appropriate constant region segments); HEK-293 conditioned medium; also called humanized 2B6

- binding result (soluble FcγIIA): no binding
- Mean Fluorescence [3]: 46
- Mean Fluorescence [4]: 167
- Mean Fluorescence [6]: 134
B3: hu2B6HC/hu2B6LC(N50Y,V51A) (antibody, V domains shown)
VH: B1 VH
VL: B1 VL with V51A
notes: Human IgG; HEK-293 conditioned medium; also called Hu2B6N50Y, V51A; Hu2B6N50Y,V51A
